Assay [1] deals with HLA-A*02:01. Put plainly: IEDB peptide-MHC binding, purified MHC/competitive/radioactivity; ≥ and ≤ were set here for values at or beyond the usual limits of such assays.
The target of a further assay is HLA-A*29:02. Put plainly: IEDB peptide-MHC binding, purified MHC/competitive/fluorescence; filed as Kd, often an IC50 or EC50 that approximates it; ≥ and ≤ were set here for values at or beyond the usual limits of such assays. The following applies: source organism: Homo sapiens.
Assay [2] deals with HLA-A*01:01. Described as above. Conditions: source organism: Homo sapiens.
The next assay deals with HLA-C*07:02. Put plainly: IEDB peptide-MHC binding, purified MHC/direct/fluorescence; filed as Kd, often an IC50 or EC50 that approximates it; ≥ and ≤ were set here for values at or beyond the usual limits of such assays.
A further assay addresses HLA-C*14:02. The assay is described as above.
A further assay deals with HLA-C*15:02. The assay is described as above.
In assay [3] the target is HLA-B*40:01. Put plainly: IEDB peptide-MHC binding, purified MHC/competitive/fluorescence; filed as Kd, often an IC50 or EC50 that approximates it; ≥ and ≤ were set here for values at or beyond the usual limits of such assays.
For assay [4], the target named is HLA-B*39:01. The assay is described as above. The following applies: source organism: Shigella boydii CDC 3083-94.
The target of the next assay is HLA-B*07:02. The description is as above. The following applies: source organism: Shigella boydii CDC 3083-94.
The target of assay [5] is HLA-B*15:01. The assay is described as above.
The target in assay [6] is HLA-A*02:01. The description is as above. Conditions: source organism: Shigella boydii CDC 3083-94.
Assay [7] concerns the target HLA-A*31:01. Described as above. Conditions: source organism: Mycobacterium tuberculosis variant bovis BCG str. Pasteur 1173P2.
Assay [8] addresses HLA-B*57:01. The description is as above. Conditions: source organism: Mycobacterium tuberculosis variant bovis BCG str. Pasteur 1173P2.
The target of assay [9] is HLA-B*08:01. The assay is described as above. The following applies: source organism: Mycobacterium tuberculosis variant bovis BCG str. Pasteur 1173P2.
The next assay addresses HLA-B*15:09. Put plainly: IEDB peptide-MHC binding, purified MHC/direct/fluorescence; filed as Kd, often an IC50 or EC50 that approximates it; ≥ and ≤ were set here for values at or beyond the usual limits of such assays. The following applies: source organism: Mycobacterium tuberculosis str. Haarlem.
For another assay, the target named is HLA-B*27:05. Described as above. Conditions: source organism: Mycobacterium tuberculosis.
The target in assay [10] is HLA-B*40:01. The description is as above. The following applies: source organism: Mycobacterium tuberculosis.
Assay [11] has as its target HLA-B*39:01. Described as above. The following applies: source organism: Mycobacterium tuberculosis str. Haarlem.
For assay [12], the target named is HLA-B*46:01. The description is as above. The following applies: source organism: Mycobacterium tuberculosis.
A further assay has as its target HLA-B*58:01. The description is as above. The following applies: source organism: Mycobacterium tuberculosis.
A further assay addresses HLA-A*69:01. The description is as above. The following applies: source organism: Mycobacterium tuberculosis.
For a further assay, the target named is HLA-B*18:01. The assay is described as above. Conditions: source organism: Mycobacterium tuberculosis.
Assay [13] has as its target HLA-B*15:01. Described as above. The following applies: source organism: Mycobacterium tuberculosis.
Assay [14] addresses HLA-A*02:01. Described as above. The following applies: source organism: Mycobacterium tuberculosis.
In assay [15] the target is HLA-A*01:01. Described as above. Conditions: source organism: Mycobacterium tuberculosis.
For a further assay, the target named is HLA-A*03:01. Described as above.
For another assay, the target named is HLA-B*51:01. The description is as above. The following applies: source organism: Mycobacterium tuberculosis.
Another assay deals with HLA-B*48:01. The description is as above. Conditions: source organism: Mycobacterium tuberculosis.
The target in a further assay is HLA-A*11:01. The assay is described as above. The following applies: source organism: Mycobacterium tuberculosis.
For another assay, the target named is HLA-B*38:01. The assay is described as above. The following applies: source organism: Mycobacterium tuberculosis str. Haarlem.
Assay [16] has as its target HLA-A*31:01. The description is as above. The following applies: source organism: Mycobacterium tuberculosis.
The target in the next assay is HLA-B*15:17. Described as above. Conditions: source organism: Mycobacterium tuberculosis.
The target in assay [17] is HLA-B*57:01. The description is as above. The following applies: source organism: Mycobacterium tuberculosis.
The next assay has as its target HLA-B*08:02. Described as above. The following applies: source organism: Mycobacterium tuberculosis str. Haarlem.
Assay [18] deals with HLA-B*08:01. Described as above. Conditions: source organism: Mycobacterium tuberculosis str. Haarlem.
Assay [19] addresses HLA-A*02:01. Put plainly: IEDB peptide-MHC binding, purified MHC/competitive/radioactivity; filed as Kd, often an IC50 or EC50 that approximates it; ≥ and ≤ were set here for values at or beyond the usual limits of such assays. The following applies: source organism: Homo sapiens.
Assay [20] addresses HLA-B*46:01. Nature of the assay: IEDB peptide-MHC binding, purified MHC/competitive/fluorescence; filed as Kd, often an IC50 or EC50 that approximates it; ≥ and ≤ were set here for values at or beyond the usual limits of such assays. The following applies: source organism: Giardia lamblia ATCC 50803.
The target in a further assay is HLA-A*26:02. Nature of the assay: IEDB peptide-MHC binding, purified MHC/direct/fluorescence; filed as Kd, often an IC50 or EC50 that approximates it; ≥ and ≤ were set here for values at or beyond the usual limits of such assays.
The next assay concerns the target HLA-C*12:03. Described as above.
A further assay deals with HLA-A*26:01. Described as above. The following applies: source organism: Giardia lamblia ATCC 50803.
The target in a further assay is HLA-C*06:02. The assay is described as above. The following applies: source organism: Yellow fever virus.
The mark [21] stands for this setting: source organism: Shigella boydii CDC 3083-94.
Where [22] appears, read: source organism: Escherichia coli 536.
Where [23] appears, read: source organism: Giardia lamblia ATCC 50803.
The mark [24] stands for this setting: source organism: Yellow fever virus.

Bounds are passed on as bounds.

Usually IC50 stands for the point on the concentration scale where inhibition reaches its midpoint. Regarding FLPADFFPSI, the IC50 with HLA-A*02:01 [1] (source organism: Hepatitis B virus) was 16 nM.

For orientation: Kd means the constant that tells how readily two partners part at equilibrium. For the sequence MLYPRVWPY, the Kd with HLA-A*29:02 was at most 0.1 nM; in the assay with HLA-A*01:01 [2], 1080 nM; with HLA-C*07:02 (source organism: Homo sapiens) it was 238 nM; with HLA-C*14:02 (source organism: Homo sapiens) it was 246 nM; with HLA-C*15:02 (source organism: Homo sapiens), at least 20000 nM.

As to QEPGIFCAI, the Kd is 10.5 nM in the assay with HLA-B*40:01 [3] (setting [21]); 496 nM with HLA-B*39:01 [4]; at least 20000 nM with HLA-B*07:02; at least 20000 nM with HLA-B*15:01 [5] (setting [21]); 116 nM in the assay with HLA-A*02:01 [6].

As to RIRSERPAF, the Kd in the assay with HLA-A*31:01 [7] is 982 nM; with HLA-B*57:01 [8], 935 nM; with HLA-B*08:01 [9] it was 2250 nM; with HLA-B*15:09, at least 20000 nM; with HLA-B*27:05, at least 20000 nM; with HLA-B*40:01 [10], at least 20000 nM. Moreover, the Kd is at least 20000 nM with HLA-B*39:01 [11]; at least 20000 nM with HLA-B*46:01 [12]; at least 20000 nM with HLA-B*58:01; at least 20000 nM in the assay with HLA-A*69:01; at least 20000 nM with HLA-B*18:01; 27.8 nM in the assay with HLA-B*15:01 [13]. Moreover, the Kd was at least 20000 nM with HLA-A*02:01 [14]; at least 20000 nM in the assay with HLA-A*01:01 [15]; 381 nM with HLA-A*03:01 (source organism: Mycobacterium tuberculosis str. Haarlem); at least 20000 nM in the assay with HLA-B*51:01; at least 20000 nM in the assay with HLA-B*48:01; at least 20000 nM in the assay with HLA-A*11:01.

Regarding RQASIELPSMAV, the concentration for half-maximal inhibition (IC50) with HLA-A*02:01 [1] (source organism: Homo sapiens) was 1770 nM.

As for SLYNAVATL, the IC50 with HLA-A*02:01 [1] (source organism: Human immunodeficiency virus 1) amounted to 29 nM.

For the sequence VPRDRNGTF, the Kd with HLA-B*15:09, with HLA-B*27:05, in the assay with HLA-B*38:01, with HLA-B*40:01 [10], in the assay with HLA-B*46:01 [12] and with HLA-B*58:01 was at least 20000 nM throughout. The Kd with HLA-A*69:01, with HLA-A*31:01 [16], with HLA-B*18:01, in the assay with HLA-B*15:01 [13], in the assay with HLA-A*02:01 [14] and with HLA-A*01:01 [15] was at least 20000 nM throughout. Also, the Kd with HLA-A*03:01 (source organism: Mycobacterium tuberculosis), with HLA-B*15:17, in the assay with HLA-B*57:01 [17], with HLA-B*51:01, with HLA-B*48:01 and in the assay with HLA-A*11:01 was at least 20000 nM throughout. For the same sequence, the values for the Kd with HLA-B*08:02 and with HLA-B*08:01 [18] were 19000 nM and 624 nM, respectively.

As for VVLSWAPPV, the IC50 with HLA-A*02:01 [1] (source organism: Homo sapiens) is 2.5 nM. Also, the Kd with HLA-A*02:01 [19] came to 8.4 nM.

For the sequence YEDEDIIVI, the Kd in the assay with HLA-B*40:01 [3] (setting [22]) turned out to be 4.3 nM; in the assay with HLA-B*15:01 [5] (setting [22]), 3500 nM.

As for YSAEALLPY, the Kd in the assay with HLA-B*46:01 [20] came out at 55.1 nM; with HLA-A*26:02 (setting [23]), 3 nM; with HLA-C*12:03 (setting [23]), 13 nM; in the assay with HLA-A*26:01, 9 nM.

Consider YVIRDLAAM, for which the Kd with HLA-C*07:02 (setting [24]) was 590 nM; with HLA-C*14:02 (setting [24]) it was 79 nM; with HLA-A*26:02 (setting [24]) it was at most 1 nM; with HLA-C*06:02, at least 20000 nM; with HLA-C*12:03 (setting [24]), 23 nM; in the assay with HLA-C*15:02 (setting [24]) it was 274 nM.
